# Results published in US5580747A, “Non-radioactive enzyme assay” (Promega Corporation, priority 1994, dated 1996).
# No end group written: not given here.
# Assays:
# [1] = target: T1, Endoprotease Lys C (Lysobacter enzymogenes, UniProt Q7M135); assay: Assay of pure proteases using modified peptides, agarose gel; assay type: biochemical; settings: 90 minutes at 37° C., 0.1 to 0.001 μg protease
# T1 construct: purchased Promega Corp., Madison, Wis
# Procedure: (§1) The proteases Modified Trypsin [sequencing grade] (Promega Corp., Madison, Wis.) and Endoprotease Lys C [sequencing grade] were dissolved in A buffer (50 mM ammonium bicarbonate, pH 7.8). These stocks were diluted with A buffer to produce stocks containing […] protease per 4 μl of liquid. Independent incubations of 4 μl of each of the different protease concentrations were performed with Promega Peptides 5 (SEQ ID NO:5), 6 (SEQ ID NO:6), 7 (SEQ ID NO:7) (5 μl of the stocks described above) in a 20 μl reaction mixture containing: 5 μl peptide; 4 μl protease; and 11 μl A buffer.
# (§2) After 90 minutes at 37° C., the samples were loaded into a 0.8% agarose gel made in 20 mM Tris, pH 8.0. The samples were electrophoresed at 150 V. When the control peptide sample had migrated about 0.5 inch from the loading well, the gels were photographed on a transilluminator as described above.
# (§3) Reference is made to FIG. 13, which is a photograph of the agarose gel used to analyze the peptide species produced in the digestion of Promega Peptide 6 (SEQ ID NO:6) by modified trypsin and Endoprotease Lys C. The gel was photographed under UV light as described in Example 1 and the gel is oriented such that the end of the gel which was oriented towards the negative electrode is towards the top of the photograph. The lanes are numbered from left to right. […]
# [2] = target: catalytic subunit of the cAMP-dependent protein kinase (Homo sapiens, UniProt P17612); assay: Quantitation of cAMP-dependent protein kinase activity using microtiter plate reader; assay type: biochemical; settings: for A570: phosphorylated peptide band
# Procedure: Eight microliters of Promega Peptide 7 (SEQ ID NO:7) was phosphorylated by the catalytic subunit of the cAMP-dependent protein kinase. The amount of kinase used in the assay varied from 4.5 μg to 0.9 ng, diluted from a stock solution of 2.25 mg/ml. The reactions took place in a volume of 24 μl for 30 minutes at room temperature, and were stopped by heating the solutions at 95° C. for five minutes.
# After heating, glycerol was added to the solutions to a final concentration of 4%. The solutions were then loaded on a 0.8% agarose gel, which was run at 100 V until the phosphorylated and non-phosphorylated bands had separated and migrated from the wells.
# The agarose containing the phosphorylated peptide was excised from the gel with a razor blade and placed into Eppendorph tubes. The agarose was melted, and 145 μl agarose solution were diluted in urea and acetic acid to a final concentration of 2M and 1M, respectively, in a final volume of 250 μl.
# The solutions were placed in the wells of a microtiter plate and allowed to cool. After the agarose re-solidified, the absorbance of the wells at 570 nanometers (nm) was read.
# [3] = target: catalytic subunit of cAMP-dependent protein kinase (Homo sapiens, UniProt P17612); assay: Quantitation of cAMP-dependent protein kinase activity using a spectrophotometer; assay type: biochemical; settings: for A570: phosphorylated peptide band
# Procedure: Three microliters of Promega Peptide 7 (SEQ ID NO:7) were phosphorylated by varying amounts of cAMP-dependent protein kinase. The reactions took place in a volume of 20 μl in a solution containing 3 mM ATP, 20 mM HEPES buffer (pH 7.4), and between 50 ng and 1 μg catalytic subunit of cAMP-dependent protein kinase. The mixture was incubated for 30 minutes at room temperature, and the reactions were stopped by heating the mixture at 95° C. for five minutes.
# At this time, the phosphorylated and non-phosphorylated species had separated and could be detected by ultraviolet light. The phosphorylated peptide was then excised from the gel with a razor blade, and the agarose was melted by heating at 95° C. for 2 minutes. Two hundred microliters of the melted agarose were then diluted to 400 μl in a solution containing 2M urea and 1M acetic acid. The absorbance of the solution at 570 nm was then determined in a Milton-Roy Spectronic 1201 spectrophotometer.
# [4] = test system: Brevibacterium albidum culture supernate; assay: Assays of proteases in crude media samples; assay type: biochemical; settings: 90 minutes at 37° C.
# Procedure: (§4) Samples of culture supernate from stationary phase cultures of Thermus aquaticus (T. aquaticus) and Brevibacterium albidum (B. albidum) were made by centrifugation of a stationary phase culture at 12,000×g for 2 minutes and transfer of the supernate to fresh tubes. Diluted stocks of Promega Peptides 3 (SEQ ID NO:3), 5 (SEQ ID NO:5) and 6 (SEQ ID NO:6) were made by dilution of the original stocks of these peptides with an equal volume of 50 mM ammonium bicarbonate, pH 7.8. In three independent tubes per peptide, 10 μL of these diluted stocks were incubated with either 10 μL water, 10 μL Thermus supernate, or 10 μL Brevibacterium supernate. The incubations were performed for 90 minutes at 37° C. The samples were then loaded in a 0.9% agarose gel made with 20 mM Tris-Cl pH 8.0. The gel was then electrophoresed at 120 V for 30 minutes, and was photographed under UV light on a transilluminator as described above.
# (§5) Reference is made to FIG. 15, which is a photograph of the agarose gel used to analyze the peptide species produced in the digestion of Promega Peptides 3 (SEQ ID NO:3), 5 (SEQ ID NO:5), and 6 (SEQ ID NO:6) by supernates of cultures of T. aquaticus and B, albidum. The gel was photographed under UV light as described in Example 1 and the gel is oriented such that the end of the gel which was oriented towards the negative electrode is towards the top of the photograph.
# [5] = test system: Thermus aquaticus culture supernate; assay: Assays of proteases in crude media samples; assay type: biochemical; settings: 90 minutes at 37° C.
# Procedure: as §4, §5
# [6] = target: cAMP-dependent protein kinase (Homo sapiens, UniProt P17612); assay: Radioactive kinase assay of peptide substrates (32P incorporation, P81 filter); assay type: biochemical
# Procedure: Radioactive kinase assays were carried out as described in Walton et al., as modified and described here. Five μl Promega Peptide 1 (SEQ ID NO:1) were added to a reaction mixture containing 20mM Tris HCl (pH 7.4), 10 mM MgCl2, 4 micrograms (μg) of cAMP-dependent protein kinase (both catalytic and regulatory subunits), in the presence or absence of 2 micromolar (μM) cAMP, in a volume of 50 μl.
# The reaction began with the addition of 10 μl of solution containing 0.15 mM [γ32 P] ATP (about 0.05 Ci/mmol) and 10 mM MgCl2. After a two minute incubation, the reaction was terminated by the addition of 30 μl of H3 PO4 to a final concentration of 0.5%. To measure incorporation of radiolabelled phosphate into the peptide substrate, half the reaction mixture was spotted onto a Whatmann P81 filter. The filters were washed four times in a solution containing 0.5% H3 PO4. Each wash lasted at least five minutes. After washing, the radioactivity present on the filters was measured in a scintillation counter.
# [7] = test system: protein kinase C; assay: Detection of small amounts of protein kinase C, agarose gel; assay type: biochemical; settings: 30 minutes at room temperature, UV light
# Procedure: Fifteen microliters of Promega Peptide 5 (SEQ ID NO:5) were incubated in protein kinase C reaction buffer (20 mM HEPES (pH 7.4), 1.3 mM CaCl2, 1 mM DTT, 10 mM MgCl2, 200 μg/mL phosphatidyl serine, 15 mM ATP), and 1 μg Protein Kinase C for 2 hours at room temperature in a final volume of 40 μl. The reaction was stopped by heating the reaction solution to 95° C. for ten minutes.
# Five microliters of Promega Peptide 5 (SEQ ID NO:5) and 6 (SEQ ID NO:6) or 2.5 μl of Promega Peptide 4 (SEQ ID NO:4) were incubated with a solution containing 18 μl protein kinase C reaction buffer (described in Example 13) and decreasing amounts of protein kinase C, containing between 60 ng and 60 picograms (pg), for 30 minutes at room temperature. Reactions were stopped by heating the reaction mixtures to 95° C. for 10 minutes.
# Referring to FIG. 11, the detection of phosphorylated peptide was observed under UV light, and detection limits noted. Six hundred picograms of protein kinase C could be detected by Promega Peptide 4 (SEQ ID NO:4), 3ng by Promega Protein 5 (SEQ ID NO:5), and 3 ng by Promega Protein 6 (SEQ ID NO:6).
# [8] = target: T2, Modified Trypsin (Sus scrofa, UniProt P00761); assay: Assay of pure proteases using modified peptides, agarose gel; assay type: biochemical; settings: 90 minutes at 37° C., 0.1 to 0.001 μg protease
# T2 construct: purchased Promega Corp., Madison, Wis
# Procedure: as §1, §2, §3
# [9] = test system: alkaline phosphatase; settings: peptide phosphorylated by protein kinase C; pH 9.2, 37° C. for 45 minutes
# Procedure: Promega Peptide 6 (SEQ ID NO:6) was phosphorylated to provide a substrate for alkaline phosphatase in the following manner: 40 μl Promega Peptide 6 (SEQ ID NO:6) were incubated in a solution containing 20 mM HEPES (pH 7.4), 1.67 mM CaCl2, 1 mM dithiothreotol, 10 mM MgCl2, 100 μg/mL phosphatidylserine, 2 mM ATP, and 50 ng protein kinase C in a final volume of 100 μl at 37° C. for 1.5 hours. The reaction was stopped by incubating the mixture at 95° C. for 10 minutes.
# After phosphorylation, 0.1M Tris (pH 9.5) was added to a final pH of 9.2. Fifteen microliters of this solution were mixed with between 0.08 to 200 pmoles of alkaline phosphatase in a final volume of 20 μl and incubated at 37° C. for 45 minutes. The reaction was stopped by freezing the mixtures in a dry ice/ethanol bath. Glycerol was added to a final concentration of 4%, and the samples were run on a 0.8% agarose gel at 75 V for 20 minutes.
# [10] = 8 μl peptide, 30 minutes at room temperature
# T1 sequence (Q7M135 whole entry): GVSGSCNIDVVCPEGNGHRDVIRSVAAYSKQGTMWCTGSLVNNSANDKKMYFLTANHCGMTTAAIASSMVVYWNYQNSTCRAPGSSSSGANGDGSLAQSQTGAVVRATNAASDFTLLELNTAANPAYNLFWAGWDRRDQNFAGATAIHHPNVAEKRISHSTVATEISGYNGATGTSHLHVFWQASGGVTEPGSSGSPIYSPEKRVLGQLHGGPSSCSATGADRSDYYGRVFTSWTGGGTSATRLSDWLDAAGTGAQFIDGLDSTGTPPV
# T2 sequence (P00761 9-231): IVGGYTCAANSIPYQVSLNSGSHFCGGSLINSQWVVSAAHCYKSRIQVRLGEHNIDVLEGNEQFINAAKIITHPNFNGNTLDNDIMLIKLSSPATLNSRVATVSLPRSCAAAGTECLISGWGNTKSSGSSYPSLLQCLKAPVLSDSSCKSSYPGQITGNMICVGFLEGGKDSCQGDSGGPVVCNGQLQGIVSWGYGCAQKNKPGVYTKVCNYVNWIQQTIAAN
substance,measurement,setting,value
Promega Peptide 7: Lissamine Rhodamine-tagged Kemptide *-L-R-R-A-S-L-G (SEQ ID NO:7) ({Lissamine Rhodamine}-LRRASLG),digestion by Endoprotease Lys C,[1],did not show any digestion
same,kinase amount below which it could not be detected,[2]; [10],0.009 µg
same,kinase amount that saturated the system,[2]; [10],more than 0.9 μg
same,A570 -Blank,"[2]; Kinase 0.0009 μg (1:10,000)",0.009
same,A570 -Blank,"[2]; Kinase 0.009 μg (1:1,000)",0.010
same,A570 -Blank,[2]; Kinase 0.09 μg (1:100),0.022
same,A570 -Blank,[2]; Kinase 0.9 μg (1:10),0.107
same,A570 -Blank,[2]; Kinase 4.5 μg (1:2),0.106
same,A570,"[2]; Kinase 0.0009 μg (1:10,000)",0.106 +/- 0.013
same,A570,"[2]; Kinase 0.009 μg (1:1,000)",0.107 +/- 0.003
same,A570,[2]; Kinase 0.09 μg (1:100),0.119 +/- 0.002
same,A570,[2]; Kinase 0.9 μg (1:10),0.204 +/- 0.003
same,A570,[2]; Kinase 4.5 μg (1:2),0.203 +/- 0.005
same,correlation coefficient between kinase concentration and absorbance,[2]; range of 0.009 to 0.9 μg kinase added,0.999
same,A570 -Blank,[3]; Kinase 0.05 μg (1:200),0.009
same,A570 -Blank,[3]; Kinase 0.10 μg (1:100),0.021
same,A570 -Blank,[3]; Kinase 0.20 μg (1:50),0.029
same,A570 -Blank,[3]; Kinase 0.50 μg (1:20),0.130
same,A570 -Blank,[3]; Kinase 1.0 μg (1:10),0.163
same,A570,[3]; Kinase 0.05 μg (1:200),0.024
same,A570,[3]; Kinase 0.10 μg (1:100),0.036
same,A570,[3]; Kinase 0.20 μg (1:50),0.044
same,A570,[3]; Kinase 0.50 μg (1:20),0.145
same,A570,[3]; Kinase 1.0 μg (1:10),0.178
Sulforhodamine 101 Derivative of V^6 A^5 Kemptide ({sulforhodamine 101}-LRRASVA) [Promega Peptide 3],proteolysis by B. albidum supernate,[4],novel peptide species made in small amount
same,proteolysis by T. aquaticus supernate,[5],proteolytic cleavage of the peptide had occurred
LRRASLG [Kemptide],CPM (+cAMP),"[6]; 2 μM cAMP, 4 μg cAMP-dependent protein kinase, [γ32P]ATP, two minute incubation","471,840 CPM"
same,Stimulation,[6]; CPM +cAMP relative to no cAMP,82
same,CPM (no cAMP),"[6]; no cAMP, 4 μg cAMP-dependent protein kinase, [γ32P]ATP, two minute incubation",5760 CPM
Promega Peptide 4: Lissamine Rhodamine-tagged peptide *-R-F-A-R-K-G-S-L-R-Q-K-N-V (SEQ ID NO:4) ({Lissamine Rhodamine}-RFARKGSLRQKNV),amount of protein kinase C that could be detected,[7],Six hundred
Promega Peptide 5: Lissamine Rhodamine-tagged peptide *-Q-R-R-Q-R-K-S-R-R-T-I (SEQ ID NO:5) ({Lissamine Rhodamine}-QRRQRKSRRTI),amount of protein kinase C that could be detected,[7],3 ng
same,proteolysis by B. albidum supernate,[4],proteolysis of the peptide had taken place
same,proteolysis by T. aquaticus supernate,[5],proteolysis of the peptide had taken place
Promega Peptide 6: Lissamine Rhodamine-tagged peptide *-P-L-S-R-T-L-S-V-A-A-K-K (SEQ ID NO:6) ({Lissamine Rhodamine}-PLSRTLSVAAKK),amount of protein kinase C that could be detected,[7],3 ng
same,digestion by Modified Trypsin,[8],fluorescent species with mobilities altered
same,digestion by Endoprotease Lys C,[1],fluorescent species with mobilities altered
same,proteolysis by B. albidum supernate,[4],proteolytic cleavage of the peptide had occurred
same,proteolysis by T. aquaticus supernate,[5],proteolytic cleavage of the peptide had occurred
same,amount of alkaline phosphatase at which dephosphorylation of the phosphorylated peptide could be seen,[9],60 ng
